# In patent US8357523B2, “Beta-glucosidase variant enzymes and related polynucleotides” (Codexis, Inc., priority 2009, dated 2013):
# Substitutions are numbered along the chain they refer to.
# B1: Variant No. 366 (protein)
# chain: SAAITQEGAAPAAMLHPEKWPRPATQRLIDPAVEKRVDALLKQLSVEEKVGQVIQGDIGTITPEDLRKYPLGSILAGGDSGPNGDDRAPPKEWLDLADAFYRVSLEKRPGHTPIPVLFGIDAVHGHNNIGSATIFPHNIALGMTRDPELLRRIGEVTAEEMAATGIDWTFAPALSVVRDDRWGRTYEGFSEDPEIVASYSAAIVEGFQGKYGSKDFMAPGRAVACAKHFLADGGTDQGRDQGDARISEDELIRIHNAGYPPAIDAGVLTVMASFSSWQGIKHHGHKQLLTDVLKGQMGFNGFIVGDWNAHDQVPGCTKFNCPTSLIAGLDMYMAADSWKQLYENTLAQVKDGTIPMARLDDAVRRILRVKVLAGLFEKPAPKDRPGLPGLETLGSPEHRAVGREAVRKSLVLLKNDKGTLPLSPKARVLVAGDGADNIGKQSGGWTISWQGTGNRNDEFPGATSILGGIRDAVADAGGSVEFDVAGQYKTKPDVAIVVFGEEPYAEFRGDVETLEYQPDQKQDLTLLKKLKDQGIPVVAVFLSGRPMWVNPELNASDAFVAAWLPGTEGGGVADVLFTDKAGKVQHDFAGKLSYSWPRTAAQTTVNRGDADYNPLFAYGYGLTYKDKSKVGTLPEESGVPAEARQN
# modifications: catalytic domain; signal sequence F-10T
# B2: Variant No. 5 (protein)
# chain: STAIAQEGAAPAAILHPEKWPRPATQRLIDPAVEKRVDALLKQLSVEEKVGQVIQGDIGTITPEDLRKYPLGSILAGGNSGPNGDDRAPPKEWLDLADAFYRVSLEKRPGHTPIPVLFGIDAVHGHGNIGSATIFPHNIALGATRDPELLRRIGEVTAVEMAATGIDWTFAPALSVVRDDRWGRTYEGFSEDPEIVAAYSAAIVEGVQGKFGSKDFMAPGRIVASAKHFLADGGTDQGRDQGDARISEDELIRIHNAGYPPAIDAGVLTVMASFSSWQGIKHHGHKQLLTDVLKGQMGFNGFIVGDWNAHDQVPGCTKFNCPTSLIAGLDMYMAADSWKQLYENTLAQVKDGTIPMARLDDAVRRILRVKVLAGLFEKPAPKDRPGLPGLETLGSPEHRAVGREAVRKSLVLLKNDKGTLPLSPKARVLVAGDGADNIGKQSGGWTISWQGTGNRNDEFPGATSILGGIRDAVADAGGSVEFDVAGQYKTKPDVAIVVFGEEPYAEFQGDVETLEYQPDQKQDLALLKKLKDQGIPVVAVFLSGRPMWVNPELNASDAFVAAWLPGTEGGGVADVLFTDKAGKVQHDFAGKLSYSWPRTAAQTTVNRGDADYNPLFAYGYGLTYKDKSKVGTLPEESGVPAEARQNAGIYFRAGALRLPGRFL
# B3: Variant No. 94 (protein)
# chain: B2 chain with N79D, A143M, V159E, A198S, F211Y
# B4: 419 (protein)
# chain: SARITQEGAAPAAMLHPEKWPRPATQRLIDPAVEKRVDALLKQLSVEEKVGQVIQGDIGTITPEDLRKYPLGSILAGGDSGPNGDDRAPPKEWLDLADAFYRVSLEKRDGHTPIPVLFGIDAVHGHNNIGSATIFPHNIALGMTRDTELLRRIGEVTAEEMAATGIDWTFAPALSVPRDDRWGRTYEGFSEDPEIVASYSAAIVEGFQGKYGSKDFMAPGRAVACAKHFLADGGTDQGRDQGDARISEDELIRIHNAGYPPAIDAGVLTVMASFSSWQGIKHHGHKQLLTDVLKGQMGFNGFIVGDWNAHDQVPGCTKFNCPTSLIAGLDMYMAADSWKQLYENTLAQVKDGTIPMARLDDAVRRILRVKVLAGLFEKPAPKDRPGLPGLETLGSPEHRAVGREAVRKSLVLLKNDKGTLPLSPKARVLVAGDGADNIGKQSGGWTISWQGTGNRNDEFPGATSILGGIRDAVADAGGSVEFDVAGQYKTKPDVAIVVFGEEPYAEFRGDVETLEYQPDQKQDLTLLKKLKDQGIPVVAVFLSGRPMWVNPELNASDAFVAAWLPGTEGGGVADVLFTDKAGKVQYDFAGKLSYSWPRTAAQTTVNRGDADYNPLFAYGYGLTYKDKSKVGTLPEESGVPAEARQNAGIYFRAGALRLPGRFL
# modifications: truncated; signal peptide F-10T
# B5: 425 (protein)
# chain: B4 chain with D109P, A400T, E502N, Y586H
# modifications: truncated; signal peptide F-10T
# B6: 421 (protein)
# chain: B4 chain with R3A, T147P, A400T, E502N
# modifications: truncated; signal peptide F-10T
# B7: 426 (protein)
# chain: B4 chain with R3A, D109P, T147P, A400T, Y586H
# modifications: truncated; signal peptide F-10T
# B8: 424 (protein)
# chain: B4 chain with R3A, A13P, D109P, T147P, V204I, D291G, Y586H
# modifications: truncated; signal peptide F-10T
# B9: 423 (protein)
# chain: B4 chain with R3A, T147P, A400T, Y586H
# modifications: truncated; signal peptide F-10T
# B10: 427 (protein)
# chain: B4 chain with R3A, D109P, N128H, T147P, E502N
# modifications: truncated; signal peptide F-10T
# B11: 422 (protein)
# chain: B4 chain with R3A, A13P, D109P, A400T, E502N, R508Q, Y586H
# modifications: truncated; signal peptide F-10T
# Columns and labels:
# Format in all cases: biochemical
# [1] = High throughput cellobiose assay: fold improvement in cellobiase activity of CelA variants over a control enzyme (Tables 2A-2D, 3, 5, 6, 7); details: for activity (e.g., thermoactivity) over the wildtype A. irakense β-glucosidase: assay of Example 7; for Fold Improvement over Control Variant: 3.3 g/l cellobiose, 65° C. and pH 5 (incubation overnight), relative to Control #5, Variant No. 366 (SEQ ID NO: 9)
# [2] = Activity profile at different temperatures and pH using cellobiose (10 g/L) as substrate
# Experimental: β-glucosidase activity was also determined using a cellobiose assay, which used cellobiose as substrate. In a total volume of 100 μL, 25 μL clear media supernatant containing CelA enzyme was added to 10 g/L cellobiose (Fluka Cat. No. 22150, Sigma-Aldrich, Inc., St. Louis, Mo.) in 100 mM sodium phosphate buffer (pH 6-7) or sodium acetate buffer (pH 5-5.5). The reaction was incubated at 45-70° C. for an appropriate time (25 minutes to overnight depending on the enzyme concentration) while shaking. Glucose production was determined using an enzymatic glucose assay (K-GLUC, Megazyme, Ireland). 10 μl of each reaction was added to 190 μl GOPOD reagent (supplied as part of the K-GLUC assay kit). The reaction was incubated at 45° C. for 20 minutes and the absorbance of the solution was measured at 510 nm. The GOPOD reagent contains 50 mM Potassium phosphate buffer pH7.4, 0.011M p-hydroxybenzoic acid, 0.008% w/v sodium azide, glucose oxidase (>12,000 U/L), peroxidase (>650 U/L) and 80 mg/L 4-aminoantipyrine. The glucose oxidase enzyme in the reagent reacts with any glucose present in the sample and produces hydrogen peroxide which then reacts with the 4-aminoantipyrine to produce a quinoneimine dye in quantities proportionate with the amount of glucose present and can be measured spectrophotometrically at 510 nm. Detectable β-glucosidase activity was observed under high throughput screening conditions (i.e., pH 7, 50° C.).
# The native CelA activity profile was investigated at different temperatures (40-55° C.) and pH (5.0-8.0) using cellobiose (10 g/L) as a substrate. The experimental and analytical procedures are described in Example 5.
# The activity profiles for Variant Nos. 264, 366, 391, 463, and 529 were determined at different temperatures and pH using cellobiose (10 g/L) as a substrate. The experimental and analytical procedures are described in Example 5, incubating the variant with cellobiose at temperatures in the range of 45-80. The results are depicted in FIGS. 7-11. […] The temperature and pH profile for this variant is depicted in FIG. 7. […] The temperature and pH profile for this variant is depicted in FIG. 8. […] The temperature and pH profile for this variant is depicted in FIG. 9. […] (with the pH 6 optimum determined by extrapolation). The temperature and pH profile for this variant is depicted in FIG. 10. […] The temperature and pH profile for this variant is depicted in FIG. 11.
# [3] = Enzyme stability: residual activity on pNPG after pre-incubation at high temperature and low pH; details: residual activity on pNPG at pH 7, 30° C.; for % residual activity after 10 mins @ pH 5.5, 55° C.: pre-incubation 10 mins at pH 5.5, 55° C.; for % residual activity after 10 mins @ pH 5.5, 55° C. / % residual activity after 6 hours @ pH 5.5, 55° C.: 1 hr; for % residual activity after 1 hour @ pH 5.5, 55° C.: pre-incubation 1 hour at pH 5.5, 55° C.; for % residual activity after 6 hours @ pH 5.5, 55° C.: pre-incubation 6 hours at pH 5.5, 55° C.
# Experimental: Residual activity is determined by exposing the enzyme to stress conditions of elevated temperature for a period of time and then determining the β-glucosidase activity. The β-glucosidase activity of the enzyme exposed to stress conditions (“a”) is compared to that of a control in which the enzyme is not exposed to the stress conditions (“b”), and residual activity is equal to the ratio a/b. Exemplary conditions for determining thermostability are provided in Examples 9 and 13. In one embodiment the enzymes are exposed to stress conditions of 50° C. at pH 5.5 or 55° C. at pH 5.0 or 55° C. at pH 5.5, or 65° C. at pH 5.0 for about 1 hour, and assayed at 30° C., pH 7, for about 0.1 hour.
# A colorimetric pNPG (p-nitrophenyl-(β-D-glucopyranoside)-based assay was used for measuring β-glucosidase activity. In a total volume of 100 μL, 20 μL clear media supernatant containing β-glucosidase enzyme was added to 4 mM pNPG (Sigma-Aldrich, Inc. St. Louis, Mo.) solution in 50 mM sodium phosphate buffer at pH6.5. The reactions were incubated at pH 6.5, 45° C. for 1 hour. The reaction mixture was quenched with 100 μL of 1M sodium carbonate pH 11 solution. The absorbance of the solution was measured at 405 nm to determine the conversion of pNPG to p-nitrophenol. The release of p-nitrophenol (ε=17,700 M−1 cm−1) was measured at 405 nm to calculate β-glucosidase activity. Detectable β-glucosidase activity was observed under high throughput screening conditions (pH 7, 50° C.).
# Four CelA variants and wildtype CelA were characterized to determine their stabilities at high temperature (55° C.) and low pH (pH5.5) using the method of Example 5A. The samples containing various CelA variant enzymes were pre-incubated at pH 5.5, 55° C. for 0-6 hrs. The residual enzyme activity after the thermal challenge was measured using pNPG as substrate at pH 7, 30° C. for 1 hr. […] The mutations listed in the table are indicated relative to SEQ ID NO: 4, the wildtype CelA. These sequences included residues GTS prior to the N-terminus of SEQ ID NO: 4 (prepared as described in Example 1). […]
molecule,measurement,setting,value
B1,"activity (e.g., thermoactivity) over the wildtype A. irakense β-glucosidase, demonstrated indirectly","[1]; shown by improvement over a chain of controls, of which Variant No. 5 was directly compared to the wildtype",improved activity
same,pH of optimum activity,[2],6 pH
same,temperature of optimum activity,[2],66 °C
B2,"% residual activity after 10 mins @ pH 5.5, 55° C.",[3],0%
same,"% residual activity after 1 hour @ pH 5.5, 55° C.",[3],0%
same,"% residual activity after 6 hours @ pH 5.5, 55° C.",[3],0%
same,"activity (e.g., thermoactivity) over the wildtype A. irakense β-glucosidase",[1],improved activity
B3,"% residual activity after 10 mins @ pH 5.5, 55° C.",[3],3%
same,"% residual activity after 1 hour @ pH 5.5, 55° C.",[3],0%
same,"% residual activity after 6 hours @ pH 5.5, 55° C.",[3],0%
same,"activity (e.g., thermoactivity) over the wildtype A. irakense β-glucosidase",[1],improved activity
B4,Fold Improvement over Control Variant,[1],++ (++ = 1.1 to 2.0 fold improvement over control Variant No. 366)
B5,Fold Improvement over Control Variant,[1],+++ (+++ = 2.1 to 3.0 fold improvement over control Variant No. 366)
B6,Fold Improvement over Control Variant,[1],++ (++ = 1.1 to 2.0 fold improvement over control Variant No. 366)
B7,Fold Improvement over Control Variant,[1],++ (++ = 1.1 to 2.0 fold improvement over control Variant No. 366)
B8,Fold Improvement over Control Variant,[1],++ (++ = 1.1 to 2.0 fold improvement over control Variant No. 366)
B9,Fold Improvement over Control Variant,[1],++ (++ = 1.1 to 2.0 fold improvement over control Variant No. 366)
B10,Fold Improvement over Control Variant,[1],++ (++ = 1.1 to 2.0 fold improvement over control Variant No. 366)
B11,Fold Improvement over Control Variant,[1],+++ (+++ = 2.1 to 3.0 fold improvement over control Variant No. 366)
